Test results as given in paper PMC3350598 (Structure(London, England:1993), 2012).

T1: Broxl, long form of the human Brox protein (residues 2-411) (human, UniProt Q5VW32 2-411)
T1 sequence (looked up): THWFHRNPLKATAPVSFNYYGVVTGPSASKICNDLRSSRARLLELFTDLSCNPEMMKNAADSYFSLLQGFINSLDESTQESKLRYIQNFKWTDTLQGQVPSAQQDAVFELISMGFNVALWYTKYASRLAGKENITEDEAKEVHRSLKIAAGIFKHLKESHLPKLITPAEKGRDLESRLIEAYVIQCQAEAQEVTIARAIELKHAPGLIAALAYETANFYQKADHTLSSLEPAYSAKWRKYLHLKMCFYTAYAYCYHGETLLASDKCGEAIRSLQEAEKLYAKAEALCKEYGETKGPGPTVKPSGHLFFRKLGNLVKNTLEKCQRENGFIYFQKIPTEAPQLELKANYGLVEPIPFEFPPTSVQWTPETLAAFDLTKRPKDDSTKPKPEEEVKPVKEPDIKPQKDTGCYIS

T2: Broxs, short form of the human Brox protein (residues 2-377) (human, UniProt Q5VW32 2-377)
T2 sequence (looked up): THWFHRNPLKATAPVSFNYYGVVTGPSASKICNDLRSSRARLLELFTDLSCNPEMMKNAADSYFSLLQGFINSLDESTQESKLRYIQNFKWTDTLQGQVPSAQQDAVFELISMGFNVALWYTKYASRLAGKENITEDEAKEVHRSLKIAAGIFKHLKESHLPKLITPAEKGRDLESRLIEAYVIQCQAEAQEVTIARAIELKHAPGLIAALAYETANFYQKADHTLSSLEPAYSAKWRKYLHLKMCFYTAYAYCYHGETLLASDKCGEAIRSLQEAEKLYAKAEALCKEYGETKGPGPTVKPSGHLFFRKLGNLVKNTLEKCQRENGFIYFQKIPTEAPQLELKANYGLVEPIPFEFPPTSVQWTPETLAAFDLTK

B1: C-terminal fragment of human CHMP5 (residues 151-219) (domain or fragment, UniProt Q9NZZ3 151-219, looked up)
chain: RSYGTPELDEDDLEAELDALGDELLADEDSSYLDEAASAPAIPEGVPTDTKNKDGVLVDEFGLPQIPAS

Key:
[1] = molecular target: T1, Broxl, long form of the human Brox …; assay: crystal structure
[2] = molecular target: T2, Broxs, short form of the human Brox …; assay: crystal structure

Binder	binding result [1]	binding result [2]
B1	binds	binds
TKNKDGVLVDEFGLPQIPAS [synthesized peptide corresponding to the CHMP5 C-terminal 20 residues]	binds	binds
